Test results published in PMC4989918.

Key:
[1] = molecular target: Mb(BgaD_L19) displayed on yeast; assay: flow cytometry on cells
[2] = molecular target: Mb(BgaD_L23) displayed on yeast; assay: flow cytometry on cells
[3] = molecular target: Mb(BgaD_L14), purified monobody; assay: bead-based binding assay read by flow cytometry

B1: BgaD-D, β-galactosidase from Bacillus circulans ATCC 31382 (residues 36–847), biotinylated (enzyme)
chain: GNSVSYDGERRVNFNENWRFQRETNGSIAGAQNPGFDDSSWRKLNLPHDWSIELDFNKNSLATHEGGYLDGGIGWYRKTFTIPESMKGKRISLDFDGVYMNSTTYLNGEVLGTYPFGYNAFSYDISDKLYKDGRANVLVVKVNNTQPSSRWYSGSGIYRNVYLTVTDPIHVARYGTFVTTPNLEKSIKEDRADVNIKTKISNDAAEAKQVKIKSTIYDGAGNTVQTVETEEKTAAAGTVTPFEQNTVIKQPKLWSIDKPYRYNLVTEVIVGGQTVDTYETKFGVRYFKFDENEGFSLNGEYMKLHGVSMHHDLGALGAATNARGVERQMQIMKDMGVNAIRVTHNPASPELLEAANKLGLFIIEEAFDSWAQSKKPYDYGRFFNAWAEHDIKEMVDRGKNEPAIIMWSIGNEIYDTTNAAGVETARNLVGWVKEIDTTRPTTIGEDKTRGDKVNVTPINSYIKEIFNIVDVVGLNYSENNYDGYHKQNPSWKLYGSETSSATRSRGVYTHPYQYNQSTKYADLQQSSYDNDYVGWGRTAEDAWKYDRDLKHIAGQFIWTGFDYIGEPTPYYNSYPAKSSYFGAVDTAGFPKDIFYYYQSQWKKEPMVHLLPHWNWKEGEKVRVLAYTNASKVELVLNGESLGEKNYDNKQTSWGAPYKETKDGKTYLEWAVPFKPGKLEAVAKDENGKVIARDQVVTAGEPASVRLTADRKVVKADGTDLSFITADIVDSKGIVVPDADHLITFNVTGQGELAGVDNGNASSVERYKDNKRKAFSGKALAIVQSSKLSGKITVHASVAGLSSDSTSVFTVTP
modifications: biotin on the biotin-acceptor tag (in vivo biotinylation)
Work on B1 yielded a Kd [1] of 600 nM, a Kd [2] of 12 nM and a Kd [3] of 31 nM.
